The record followed here is patent publication US20250388666A1 (BRIGHAM AND WOMEN S HOSPITAL, published 2025).

Test [1] has as its target T1, CEACAM1-HIS (Sino Biologics Inc.) (Homo sapiens (Human), UniProt P13688 35-428).
T1 construct: bought; not shown: His tag
T1 sequence: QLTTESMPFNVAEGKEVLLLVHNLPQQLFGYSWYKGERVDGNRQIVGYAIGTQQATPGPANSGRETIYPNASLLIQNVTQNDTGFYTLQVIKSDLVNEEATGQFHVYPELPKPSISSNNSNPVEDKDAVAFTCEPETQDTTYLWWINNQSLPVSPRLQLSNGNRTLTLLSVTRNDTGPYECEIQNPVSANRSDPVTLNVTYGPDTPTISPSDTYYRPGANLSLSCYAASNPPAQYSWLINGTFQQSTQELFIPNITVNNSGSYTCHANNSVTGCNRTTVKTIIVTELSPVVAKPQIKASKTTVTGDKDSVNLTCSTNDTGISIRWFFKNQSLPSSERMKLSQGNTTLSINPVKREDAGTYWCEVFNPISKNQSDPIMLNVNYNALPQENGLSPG
Briefly: SPR multi-cycle.

For test [2], the target named is T1, CEACAM1-HIS (Sino Biologics Inc.). Briefly: SPR multi-cycle, IgG on Protein A. Here is the method: (§1) As an alternative approach to assess the binding of the antibody combinations and the control antibodies to CEACAM1, a kinetic analysis was performed on a Biacore T200 running Biacore T200 Evaluation Software V2.0.1. All experiments were run at 25° C. with HBS-P+ running buffer (pH 7.4).
For multi-cycle kinetic analysis purified antibody was immobilized at a protein concentration of 1 μg/mL in HBS-P+. At the start of each cycle, antibody was captured on Protein A to give an RU of ˜100 and the surface allowed to stabilize. Kinetic data was obtained at a flow rate of 35 μl/min to minimize any potential mass transfer effects. Multiple repeats of the blank (no CEACAM1) and a repeat of a single concentration of the analyte were programmed into the kinetic run in order to check the stability of both the surface and analyte over the kinetic cycles. For kinetic analysis, a 2-fold dilution series was selected from 100 to 1.5625 nM CEACAM1. The association phase of CEACAM1 was monitored initially for 180 seconds. In the subsequent experiment a longer association time (275 seconds) was used in order to better reach steady state. The dissociation phase was measured for 250 seconds. Regeneration of the Protein A surface was conducted using 2 injections of 10 mM glycine-HCL pH 1.5 at the end of each cycle.
The signal from the reference channel Fc1 was subtracted from that of Fc2, Fc3 and Fc4 to correct for differences in non-specific binding to a reference surface, a global Rmax parameter was used in the 1-to-1 binding model. The relative KD compared to the chimeric parental antibody was calculated by dividing the KD of the Composite Human Antibody™ variants by that of the chimeric parental antibody on the same chip.

The target is the same in test [3]. Briefly: SPR single-cycle, IgG on Protein A. As to the method: as §1
In order to assess the binding of all Composite Human Antibody™ variants, single cycle kinetic analysis was performed on the supernatants of all the transiently transfected HEK EBNA cells. Purified chimeric antibody and purified chimeric antibody spiked into HEK EBNA media were used as positive controls. Supernatants were diluted in HBS-P+ to a concentration of 1 μg/mL (as determined by an IgG quantitation ELISA). At the start of each cycle, antibodies were loaded onto Fc2, Fc3 and Fc4 of a Protein A chip and captured at a flow rate of 8 μL/min to give an RU of ˜100. The surface was then allowed to stabilize. Single cycle kinetic data was obtained at a flow rate of […] to minimize any potential mass transfer effects. Multiple repeats of the chimeric antibody were performed to check the stability of the surface and analyte over the kinetic cycles. The signal from the reference channel Fc1 (no antibody) was subtracted from that of Fc2, Fc3 and Fc4 to correct for differences in non-specific binding to a reference surface. A 5 point 2-fold dilution range from 3.125 to 50 nM CEACAM1 without regeneration between each concentration was used. The association phase for the 5 injections of increasing concentrations of CEACAM1 was monitored for 150 seconds and a single dissociation phase was measured for 150 seconds following the last injection of CEACAM1. Regeneration of the Protein A was conducted using 2 injections of 10 mM glycine-HCL pH 1.5 followed by a stabilization period of 500 seconds.
In the raw sensorgrams for the single cycle kinetics, the signal from each antibody blank run (no CEACAM1) was subtracted to correct for differences in surface stability.

The target in test [4] is T2, human GST-CEACAM1 (human, UniProt P13688 35-141, limits assumed).
T2 construct: printed both as GST-CEACAM1 and CEACAM1-GST; also called human CEACAM1-GST protein; hCEACAM1-GST; not shown: GST tag
T2 sequence: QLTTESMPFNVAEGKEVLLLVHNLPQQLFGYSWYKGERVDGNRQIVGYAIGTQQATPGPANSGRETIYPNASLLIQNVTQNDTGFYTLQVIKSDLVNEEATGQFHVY
Kind of test: competition ELISA vs murine parent antibody. Here is the method:
The binding of the purified chimeric antibody to human CEACAM1 was assessed in a competition ELISA assay. Nunc Immuno MaxiSorp 96 well flat bottom microtitre plates were pre-coated with 1 μg/ml human GST-CEACAM1 in 1×PBS, overnight at 4° C. The following day the plates were blocked for 1 hour at room temperature with 2% BSA/PBS before washing 2× with PBS/0.05% Tween 20 pH 7.4.
The binding of the purified antibodies to human CEACAM1 were assessed in a competition ELISA assay as described above. The ability of each variant to compete against the murine parental antibody for binding to the GST-CEACAM1 was compared to that of the chimeric antibody (VH0/Vκ0), which was included on each plate.
A general note: ELISA stands for enzyme-linked immunosorbent assay.

B1: VH1/Vκ1 (antibody, V domains shown)
VH: EVQLLESGGGLVQPGGSLRLSCAASGFIFSSHGMSWVRQAPGKGLEWVATISSGGTYTYYPDSVKGRFTISRDNSKNTLYLQMNSLKAEDTAMYYCARHDFDYDAAWFAYWGQGTLVTVSS
VL: QIVLTQSPALLSLSPGERATMSCSANSSVSYMYWYRQKPGQAPKPWIYLTSNLASGVPARFSGSGSGTDYTLTISSLEAEDFATYYCQQWSSNPPTFGQGTKLEIK
One may read the Kd as the free concentration of one partner at which half of the binding sites on the other are occupied at equilibrium, for simple one-to-one binding. Usually koff stands for the rate constant with which the complex falls apart. A word on the kon: it is the second-order rate constant of association. Take B1: in test [1], the “average relative KD to chimeric parental antibody” value (from here on “average relative KD”) was found to be 1.45 ratio, the “relative KD to chimeric parental antibody expt 1” value stood at 1.5 ratio and the “relative KD to chimeric parental antibody expt 2” value came to 1.4 ratio. For the same molecule, in test [2], the Kd came to 38.1 nM, the koff is 0.00384 s⁻¹, the kon turned out to be 101000 M⁻¹ s⁻¹ and the “relative KD to chimeric parental antibody” value was found to be 1.4 ratio. Further, in test [3], the equilibrium dissociation constant (Kd) worked out at 93.4 nM and the “relative KD to chimeric parental antibody” value was 2.2 ratio. Moreover, the “average relative IC50 (normalized to chimeric antibody)” value in test [4] was 1.5 ratio.

B2: VH2/Vκ1 (antibody, V domains shown)
VH: EVQLLESGGGLVQPGGSLRLSCAASGFIFSSHGMSWVRQAPGKGLEWVATISSGGTYTYYPDSVKGRFTISRDNSKNTLYLQMNSLRAEDTAMYYCARHDFDYDAAWFAYWGQGTLVTVSS
VL: QIVLTQSPALLSLSPGERATMSCSANSSVSYMYWYRQKPGQAPKPWIYLTSNLASGVPARFSGSGSGTDYTLTISSLEAEDFATYYCQQWSSNPPTFGQGTKLEIK
Consider B2, for which, in test [1], the “average relative KD” value is 1.31 ratio, the “relative KD to chimeric parental antibody expt 1” value was found to be 1.39 ratio and the “relative KD to chimeric parental antibody expt 2” value is 1.22 ratio. Also, in test [2], the Kd came to 33.3 nM, the koff turned out to be 0.0052 s⁻¹, the kon came out at 156000 M⁻¹ s⁻¹ and the “relative KD to chimeric parental antibody” value is 1.22 ratio. In test [3], the Kd was 180 nM and the “relative KD to chimeric parental antibody” value was found to be 4.2 ratio. The “average relative IC50 (normalized to chimeric antibody)” value in test [4] was 1.7 ratio.

B3: VH2/Vκ2 (antibody, V domains shown)
VH: EVQLLESGGGLVQPGGSLRLSCAASGFIFSSHGMSWVRQAPGKGLEWVATISSGGTYTYYPDSVKGRFTISRDNSKNTLYLQMNSLRAEDTAMYYCARHDFDYDAAWFAYWGQGTLVTVSS
VL: EIVLTQSPATLSLSPGERATLSCRANSSVSYMYWYQQKPGQAPRPWIYLTSNRATGVPARFSGSGSGTDYTLTISSLEPEDFATYYCQQWSSNPPTFGQGTKLEIK
Turning to B3, in test [1], the “average relative KD” value came to 1.27 ratio, the “relative KD to chimeric parental antibody expt 1” value worked out at 1.29 ratio and the “relative KD to chimeric parental antibody expt 2” value was determined as 1.25 ratio. In addition, in test [2], the dissociation constant (Kd) worked out at 27.8 nM, the off-rate (koff) was found to be 0.00496 s⁻¹, the kon was 179000 M⁻¹ s⁻¹ and the “relative KD to chimeric parental antibody” value is 1.25 ratio. In test [3], the Kd turned out to be 138 nM and the “relative KD to chimeric parental antibody” value came out at 3.2 ratio. Further, the “average relative IC50 (normalized to chimeric antibody)” value in test [4] came out at 1.6 ratio.

B4: VH1/Vκ2 (antibody, V domains shown)
VH: EVQLLESGGGLVQPGGSLRLSCAASGFIFSSHGMSWVRQAPGKGLEWVATISSGGTYTYYPDSVKGRFTISRDNSKNTLYLQMNSLKAEDTAMYYCARHDFDYDAAWFAYWGQGTLVTVSS
VL: EIVLTQSPATLSLSPGERATLSCRANSSVSYMYWYQQKPGQAPRPWIYLTSNRATGVPARFSGSGSGTDYTLTISSLEPEDFATYYCQQWSSNPPTFGQGTKLEIK
As to B4, in test [1], the “average relative KD” value worked out at 1.46 ratio, the “relative KD to chimeric parental antibody expt 1” value was determined as 1.66 ratio and the “relative KD to chimeric parental antibody expt 2” value was determined as 1.27 ratio. In addition, in test [2], the Kd amounted to 28.3 nM, the off-rate (koff) was 0.00551 s⁻¹, the kon was 195000 M⁻¹ s⁻¹ and the “relative KD to chimeric parental antibody” value came out at 1.27 ratio. Further, in test [3], the Kd was 148 nM and the “relative KD to chimeric parental antibody” value was determined as 3.4 ratio. For the same molecule, the “average relative IC50 (normalized to chimeric antibody)” value in test [4] was 1.3 ratio.

B5: VH0/Vκ1 (antibody, V domains shown)
VH: EVQLVESGGDLVKPGGSLKLACAASGFIFSSHGMSWVRQTPDKRLEWVATISSGGTYTYYPDSVKGRFTISRDNDKNTLYLQMNSLKSEDTAMYYCARHDFDYDAAWFAYWGQGTLVTVSS
VL: QIVLTQSPALLSLSPGERATMSCSANSSVSYMYWYRQKPGQAPKPWIYLTSNLASGVPARFSGSGSGTDYTLTISSLEAEDFATYYCQQWSSNPPTFGQGTKLEIK
Turning to B5, in test [3], the Kd was found to be 56.1 nM and the “relative KD to chimeric parental antibody” value amounted to 1.3 ratio. Moreover, the “average relative IC50 (normalized to chimeric antibody)” value in test [4] stood at 2.5 ratio.

B6: VH2/Vκ4 (antibody, IgG4, V domains shown)
VH: EVQLLESGGGLVQPGGSLRLSCAASGFSFSDYYLYWVRQAPGKGLEWVATISVGGGNTSYADSVKGRFTISRDNSKNTLYLQMNSLRAEDTAMYYCTRGLYYGPAWFAYWGQGTLVTVSS
VL: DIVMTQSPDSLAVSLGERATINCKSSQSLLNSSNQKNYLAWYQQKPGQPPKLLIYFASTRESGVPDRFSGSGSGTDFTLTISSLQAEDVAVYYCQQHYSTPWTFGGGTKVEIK
notes: IgG4 (S241P), kappa
Regarding B6, in test [3], the dissociation constant (Kd) was determined as 77.8 nM and the “relative KD to chimeric parental antibody” value is 1.8 ratio. Besides, in test [4], the “average relative IC50 (normalized to chimeric antibody)” value came to 7.2 ratio.

B7: VH1/Vκ0 (antibody, IgG4, V domains shown)
VH: EVQLLESGGGLVQPGGSLRLSCAASGFSFSDYYLYWVRQAPGKGLEWVATISVGGGNTSYPDSVKGRFTISRDNSKNTLYLQMNSLRAEDTAMYYCTRGLYYGPAWFAYWGQGTLVTVSS
VL: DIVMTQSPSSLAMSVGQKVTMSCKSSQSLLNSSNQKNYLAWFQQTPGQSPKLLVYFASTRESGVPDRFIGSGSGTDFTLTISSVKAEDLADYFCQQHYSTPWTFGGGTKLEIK
notes: IgG4 (S241P), kappa
Regarding B7, in test [3], the dissociation constant Kd stood at 76.6 nM and the “relative KD to chimeric parental antibody” value worked out at 1.8 ratio. Besides, the “average relative IC50 (normalized to chimeric antibody)” value in test [4] is 1 ratio.
